Data on one protein can be found in paper PMC9713302, “Simultaneous solving high-resolution structures of various enzymes from human kidney microsomes” (Life Science Alliance, 2022).

This data set deals with the molecule itself. Description: cryo-EM structure; single-particle cryo-EM with Build and Retrieve (BaR) on the 100-200 kD SEC peak of raw human kidney microsome lysate; 20 mM Tris-HCl pH 7.5, 100 mM NaCl; 0.6 mg/ml.

B1: betaine-homocysteine methyltransferase (BHMT) (enzyme, human (endogenous in kidney microsomes), UniProt Q93088 1-406, looked up)
chain: MPPVGGKKAKKGILERLNAGEIVIGDGGFVFALEKRGYVKAGPWTPEAAVEHPEAVRQLHREFLRAGSNVMQTFTFYASEDKLENRGNYVLEKISGQEVNEAACDIARQVADEGDALVAGGVSQTPSYLSCKSETEVKKVFLQQLEVFMKKNVDFLIAEYFEHVEEAVWAVETLIASGKPVAATMCIGPEGDLHGVPPGECAVRLVKAGASIIGVNCHFDPTISLKTVKLMKEGLEAARLKAHLMSQPLAYHTPDCNKQGFIDLPEFPFGLEPRVATRWDIQKYAREAYNLGVRYIGGCCGFEPYHIRAIAEELAPERGFLPPASEKHGSWGSGLDMHTKPWVRARARKEYWENLRIASGRPYNPSMSKPDGWGVTKGTAELMQQKEATTEQQLKELFEKQKFKSQ
notes: human BHMT, endogenous in kidney microsomes; Zn2+-free and ligand-free in the structure; also called betaine-homocysteine S-methyltransferase; source: endogenous, human kidney microsomes (bought: SEKISUI XenoTech), lysate enriched by size exclusion chromatography
For the protein B1, the “stoichiometry N” value amounted to 4.

In general, stoichiometry N refers to a count of units in the complex or per binding partner.
